Reference: FireProtDB (doi:10.1016/s0301-4622(99)00119-2)

B1: Cytochrome b5, P00171 (parent)
chain: MAEESSKAVKYYTLEEIQKHNNSKSTWLILHYKVYDLTKFLEEHPGGEEVLREQAGGDATENFEDVGHSTDARELSKTFIIGELHPDDRSKITKPSESIITTIDSNPSWWTNWLIPAISALFVALIYHLYTSEN

Variants of: B1
Settings: Bos taurus, pH 7, Thermal, Absorbance, Sodium phosphate 100 mM, structure 1CYO, whole UniProt chain shown

Variant	ddG of mutation (higher = less stable) (66.7 °C) [kcal/mol]	ddG of mutation (higher = less stable) (77.6 °C) [kcal/mol]
MAEESSKAVKYYTLEEIQKHNNSKSTWLILHYKVYDLTKFLEEHPGGEEELREQAGGDATENFEDVGHSTDARELSKTFIIGELHPDDRSKITKPSESIITTIDSNPSWWTNWLIPAISALFVALIYHLYTSEN [V50E]	2.68	2.06
MAEESSKAVKYYTLEEIQKHNNSKSTWLILHYKVYDLTKFLEEHPGGEEHLREQAGGDATENFEDVGHSTDARELSKTFIIGELHPDDRSKITKPSESIITTIDSNPSWWTNWLIPAISALFVALIYHLYTSEN [V50H]		1.39
MAEESSKAVKYYTLEEIQKHNNSKSTWLILHYKVYDLTKFLEEHPGGEEYLREQAGGDATENFEDVGHSTDARELSKTFIIGELHPDDRSKITKPSESIITTIDSNPSWWTNWLIPAISALFVALIYHLYTSEN [V50Y]	1.53	1.55
